Laboratory results reported in publication PMC8789080.
Read-outs that look alike come from different tables or passages of the source.

What was measured:
Test in all cases: EMSA
[1] = target: T1, 6H-QseC2 (Mesorhizobium japonicum R7A, UniProt A0ABX6MZB7 1-81)
[2] = target: T1, 6H-QseC2; remark: listed apart in the source
[3] = target: T1, 6H-QseC2; remark: listed apart in the source
[4] = target: T1, 6H-QseC2; remark: listed apart in the source

B1: O2L-O2R EMSA (dsDNA)
DNA 1: TACGTGGTTGAATGCTCGACACTACATGGCGCGGTTTGCCTTGTGGATTGCAAATATATCCTAAAATGGGATAATCCGAAACTGGGATTAGTTGATGAGCCGGTTCCCTTCTGGCCGGTTCATCTGATGCAGCGTGCGCTACTAGTTCCCGTA
DNA 2: TACGGGAACTAGTAGCGCACGCTGCATCAGATGAACCGGCCAGAAGGGAACCGGCTCATCAACTAATCCCAGTTTCGGATTATCCCATTTTAGGATATATTTGCAATCCACAAGGCAAACCGCGCCATGTAGTGTCGAGCATTCAACCACGTA
B1: binds [1].

B2: O2R EMSA (O2L scrambled) (dsDNA)
DNA 1: TACGTGGTTGAATGCTCGACACTACATGGCGCGGTTTGCCTTGTGGATTGCAAATATGAGTTCAATCTGAAAAATCCGAAACTGGGATTAGTTGATGAGCCGGTTCCCTTCTGGCCGGTTCATCTGATGCAGCGTGCGCTACTAGTTCCCGTA
DNA 2: TACGGGAACTAGTAGCGCACGCTGCATCAGATGAACCGGCCAGAAGGGAACCGGCTCATCAACTAATCCCAGTTTCGGATTTTTCAGATTGAACTCATATTTGCAATCCACAAGGCAAACCGCGCCATGTAGTGTCGAGCATTCAACCACGTA
B2: binds [2].

B3: O2L EMSA (O2R scrambled) (dsDNA)
DNA 1: TACGTGGTTGAATGCTCGACACTACATGGCGCGGTTTGCCTTGTGGATTGCAAATATATCCTAAAATGGGATAGAACTACTGGTAACGTAGTTGATGAGCCGGTTCCCTTCTGGCCGGTTCATCTGATGCAGCGTGCGCTACTAGTTCCCGTA
DNA 2: TACGGGAACTAGTAGCGCACGCTGCATCAGATGAACCGGCCAGAAGGGAACCGGCTCATCAACTACGTTACCAGTAGTTCTATCCCATTTTAGGATATATTTGCAATCCACAAGGCAAACCGCGCCATGTAGTGTCGAGCATTCAACCACGTA
B3: binds [3].

B4: RDM2 EMSA (both scrambled) (dsDNA)
DNA 1: TACGTGGTTGAATGCTCGACACTACATGGCGCGGTTTGCCTTGTGGATTGCAAGTCCAGATAGAAACGGACATATTGATTATTAATTAGCGCTGATGAGCCGGTTCCCTTCTGGCCGGTTCATCTGATGCAGCGTGCGCTACTAGTTCCCGTA
DNA 2: TACGGGAACTAGTAGCGCACGCTGCATCAGATGAACCGGCCAGAAGGGAACCGGCTCATCAGCGCTAATTAATAATCAATATGTCCGTTTCTATCTGGACTTGCAATCCACAAGGCAAACCGCGCCATGTAGTGTCGAGCATTCAACCACGTA
B4: no binding [4].
